Where a chain is given by its changes, count along the chain named. Names may count otherwise.
Experiments:
[1] = test system: CON1C(=O)N(c2cc(C(F)(F)F)ccn2)C(O)[C@@H]1C; test: UDP-Glo glucosyl transferase assay, purified enzyme; format: biochemical, Zea mays; settings: other: DMSO reagent blank as control, pH 7.5
Procedure: (§1) Glucosyl transferase activity is assayed via measurement of acceptor substrate-dependent production of UDP from ultrapure UDP-glucose using the Promega UDP-Glo™ method and according to the manufacturer's instructions. Assays are run in 96 well microtiter plates.
(§2) Enzyme, typically at a stock concentration of ˜2 mg/ml is diluted to an appropriate concentration in 50 mM K^+ Hepes buffer at pH7.5 containing 0.5 mg/mL bovine serum albumin (BSA) and 5 ul aliquots of this diluted enzyme added to each well of a Perkin Elmer white ½ area 96 well plate. […] Assays are run for an appropriate time (usually 10 to 60 min) so that the amount of UDP formed lies within the most nearly linear part of the UDP standard curve and are stopped with the addition and mixing of 25 ul UDP-Glo™ detection reagent (prepared as described below). Plates are then incubated at room temperature for 60 minutes and then read in a luminescence plate reader (Perkin Elmer Envision 2130 Multilabel Reader). A UDP standard curve is run alongside each set of assays and reagent blank control assays run with DMSO in place of test herbicide. Typically, 300 pmol of UDP corresponds to a Relative Luminescence Unit (RLU) reading of about 1.5E7 and the response curve between 0 and 600 pmol is fitted to a polynomial function (see for example FIG. 2).
(§3) The UDP-Glo™ reagents are made up and used according to the manufacturer's instructions. Thus, Nucleotide Detection Buffer and ATP are combined to make nucleotide detection reagent (NDR) dispensed into aliquots and frozen to be freshly thawed before use.
(§4) Km and kcat values in respect of UDP-glucose are derived by carrying out experiments to measure initial rates over a suitable range of concentrations of UDP glucose out at a fixed near saturating concentration of acceptor substrate. Best fit values of kcat, Km and kcat/Km are obtained by direct fitting of the data to the Michaelis-Menten equation using Graphpad Prism™ software.
(§5) Variants of C-terminally his tagged SEQ ID No:1 (w/t bx9 from Zea mays), exemplified as SEQ ID 16-30, were cloned, purified and assayed as described in Example 1. FIG. 4 depicts the data from some experiments to determine the kinetic parameters of some of these variants in respect of herbicide VI and table 12 summarizes the estimates of kinetic parameters obtained from further such experiments in respect of a range of herbicides.

[2] = test system: CN1CC(O)N(c2cc(C(F)(F)F)c(Cl)cn2)C1=O; test: as above; format: biochemical, Zea mays; settings: other: control = inactive H24A mutant of bx9 (asterisk), pH 7.5
Procedure: as §1, §2, §3, §4, §5
(§6) Table 13 summarizes the results obtained from assays, run as described in Example 1, using a variety of alcohol and aminal PSII herbicides as substrates of the Zea mays bx9 w/t (i.e. C-terminally his tagged SEQ ID no 1) and various mutants of the same, selected from SEQ ID NO: 16-30). All of these proteins were C-terminally his-tagged, expressed and purified as described in Example 1. Assays were run and analyzed as described in example 1. It is seen that various of the mutations herein and combinations thereof led to significant improvements (over the w/t bx9 protein) in catalytic activity versus various of the herbicides and that these improvements are often of sufficient magnitude to be useful for conferring improved herbicide tolerance upon crop. This is especially the case given that even the unmutated w/t bx9 enzyme which has only modest glucosyl transferase activity (for example against compounds V and VI) was nevertheless adequately active to confer significant herbicide tolerance in the glass house (as shown in example 9) even without mutational improvement. It is also seen that particular mutations can lead to very much improved activity in respect of some chemistries but not to others but that, overall, there is at least one variant within the scope of the current invention that provides significant and useful improvement in tolerance to each of the chemistries tested.

[3] = test system: CN1CC(O)N(c2cc(C(F)(F)F)ccn2)C1=O; test: as above; format: biochemical, Zea mays; settings: other: DMSO reagent blank as control, pH 7.5
Procedure: as §1, §2, §3, §4, §5, §6

[4] = test system: CON1C(=O)N(c2cc(C(F)(F)F)c(Cl)cn2)C(O)C1C; test: as above; format: biochemical, Zea mays; settings: other: control = inactive H24A mutant of bx9 (asterisk), pH 7.5
Procedure: as §1, §2, §3, §4, §5, §6

[5] = test system: Cc1cnc(N2C(=O)N(C)CC2O)cc1C(F)(F)F; test: as above; format: biochemical, Zea mays; settings: other: control = inactive H24A mutant of bx9 (asterisk), pH 7.5
Procedure: as §1, §2, §3, §4, §5, §6

[6] = LC/MS plate assay of crude E. coli extracts, Zea mays bx8 derivatives, herbicide V; format: biochemical; settings: for activity with herbicide V: LC/MS; for activity relative to like-expressed Zea mays bx9 w/t extract: herbicide V, LC/MS peaks, estimate
Procedure: In an alternative method for assaying the various enzymes, the test glucosyl transferase enzyme is reacted with substrates exactly as above except that the assay is stopped by adding an equal volume of acetonitrile. Alternatively 50 or 100 μl samples from assay reactions are added to 500 μl ethyl acetate to stop the reaction. In this case samples are then vortexed and 400 μl of the ethyl acetate partition removed, dried down, and resuspended in 100 μl 80:20 acetonitrile/water. The formation of product gluco side and/or disappearance of substrate test herbicide is then monitored directly by LC/MS. Samples are analyzed by LC-MS using an Agilent 1290 liquid chromatography system and Thermo Q-Exactive mass spectrometer. The chromatography is achieved on a Waters Acquity C18 BEH (50×2.1 mm) 1.7 μm particle size column, using a 6 minute gradient run of Water (0.2% formic acid) and Acetonitrile. The Q-Exactive is operated in positive ionisation electrospray mode, using Full scan-AIF mode, at 35,000 resolution, between 100-800 m/z. All analytes are identified from the full scan data to within at least 5 ppm accuracy of their predicted pseudo-molecular ion [M+H]^+ m/z value. In order to obtain quantitative data standard curves are run using herbicides and herbicide glucosides synthesized as standards. Where these synthetic glucosides were not available the LC/MS assay could only be used to provide relative data.
The glucosyl transferase activities of the mutant bx8-derived polypeptides expressed in these strains were initially assayed versus herbicide V as described in Example 1. The partly purified C-terminally his tagged w/t bx8 enzyme (SEQ ID No: 2) catalyzed glucosyl transfer to herbicide V at a low rate estimated to be less than about 0.002/s at 1 mM herbicide V which, because of a relatively high background of UDP formation in the DMSO (no substrate reagent control) was difficult to quantify using the luminescence assay. Thus further assays were run by LC/MS using which technique the formation of an O-beta glucosyl glucoside of herbicide V could more easily be confirmed but only quantified in a relative sense. Thus the various derivatives of C-terminally his tagged Zea mays bx8 SEQ ID No:2 were cloned and expressed in E. coli BL21 (DE3) as described in Example 1 and assayed in plates as crude extracts, as in Example 2, but monitored by LCMS rather than the luminescence assay.
The different stereoisomer standards chromatographed distinctly on LC (FIGS. 8A-8H). By comparing the LC elution profiles of the standards with the enzyme products at the correct mass it was possible to characterize which polypeptides catalyzed the formation of which O-glucosides. Assay samples and glucoside conjugate standards are run using the identical chromatographic conditions to allow us to identify the conjugate isomer formed in the assay. In short, as would be expected for inverting glucosyl transferases all of the bx enzymes tested produced beta glucoside products (from the alpha-UDP-glucose substrate) from all herbicides tested. But there can be subtle variations between enzymes in stereochemistry of the products made at other chiral centers.

Molecule “SEQ ID NO 16, zmBX9 S117V, M279F, A334R mutant (Zea mays; A334R/M279F/S117V)” has a Km [1] of 2.8 µM, a kcat [1] of 2.45 s⁻¹ and a kcat/Km [1] of 880000 M⁻¹ s⁻¹.

In the case of “SEQ ID NO 22, mutant of Zea mays bx9 glucosyl transferase (Zea mays; A334K/F21Y/M279F/S117V/T220P)”, the Km [2] is reported as 320 µM, the kcat [2] is reported as 0.8 s⁻¹ and the kcat/Km [2] is reported as 2500 M⁻¹ s⁻¹. For the same molecule, the Km [3] was 14.7 µM, the kcat [3] was 1.32 s⁻¹ and the kcat/Km [3] was 89700 M⁻¹ s⁻¹. For the same molecule, the Km [4] was 20 µM, the kcat [4] was 1.68 s⁻¹ and the kcat/Km [4] was 68900 M⁻¹ s⁻¹. The Km [5] was 200 µM, the kcat [5] was 1.16 s⁻¹ and the kcat/Km [5] was 5950 M⁻¹ s⁻¹.

Work on “SEQ ID NO 21, mutant of Zea mays bx9 glucosyl transferase (Zea mays; A334K/F21Y/L194V/M279F/S117V)” yielded a Km [3] of 57.3 µM, a kcat [3] of 1.86 s⁻¹ and a kcat/Km [3] of 32500 M⁻¹ s⁻¹.

B1: SEQ ID NO: 50: zmBX8/zmBX9 hybrid polypeptide (protein)
chain: MAASCGGRVVVFPFPFQGHFNPVMRLARALHARGVGITVFHTAGARAPDPADYPADYRFVPVPVEVAPELMASEDIAAIVTALNAACEAPFRDRLSALLSAADGEAGEAGGRVRCVLTDVSWDAVLSAARGLGVPALGVMTASAATFRVYMAYRTLVDKGYLPVREERKDDAVAELPPYRVKDLLRHETCDLEEFADLLGRVIAAARLSSGLIFHTFPFIEAGTLGEIRDDMSVPVYAVAPLNKLVPAATASLHGEVQADRGCLRWLDAQRARSVLYVSFGSMAAMDPHEFVELAWGLADAGRPFVWVVRPNLIRGFESGALPDGVEDRVRGRGVVVSWAPQEEVLAHPAVGGFFTHCGWNSTVEAISEGVPMVCCPRHGDQFGNMRYVCDVWKVGTELVGEQLERGQVKAAIDRLFGTKEGEEIKERMKEFKIAAAKGIGIGVDVDETASPRTDLTDLVDLIKSF
modifications: Hybrid sequence between Zea mays Bx8 and Bx9 sequences
notes: zmBX8/zmBX9 hybrid polypeptide
In the case of B1, the “activity with herbicide V” value [6] is reported as “active”, the “activity relative to like-expressed Zea mays bx9 w/t extract” value [6] is reported as “about a third to a half” and the “activity relative to like-expressed Zea mays bx9 w/t extract” value ([6]; listed as 50) is reported as “up to about half”.

B2: SEQ ID NO: 51: zmBX8/zmBX9 hybrid polypeptide (bx8/bx9 hybrid 2) (protein)
chain: B1 chain with I367V, V374I, C376H
modifications: Hybrid sequence between Zea mays Bx8 and Bx9 sequences
With B2 the “activity with herbicide V” value [6] was “active”.

B3: SEQ ID NO: 58: zmBX8/zmBX9 hybrid polypeptide (protein)
chain: MAASCGGRVVVFPFPFQGHFNPVMRLARALHARGVGITVFHTAGARAPDPADYPADYRFVPVPVEVAPELMASEDIAAIVTALNAACEAPFRDRLSALLSAADGEAGEAGGRVRCVLTDVSWDAVLSAARGLGVPALGVMTASAATFRVYMAYRTLVDKGYLPVREERKDDAVAELPPYRVKDLLRHETCDLEEFADLLGRVIAAARLSSGLIFHTFPFIEAGTLGEIRDDMSVPVYAVAPLNKLVPTATASLHGVVQADRGCLQWLDAQRARSVLYVSFGSMAAMDPHEFVELAWGLADAGRPFVWVVRPNLIRGFESGALPDGVEDRVRGRGVVVSWAPQEEVLAHPAVGGFFTHCGWNSTVEAVSEGVPMICHPRHGDQYGNARYVCHVWKVGTEVAGDQLERGEIKAAIDRLMGGSEEGEGIRKRMNELKIAADKGIDESAGSDLTNLVHLINSY
modifications: Hybrid sequence between Zea mays Bx8 and Bx9 sequences
notes: as for B1
With B3 the “activity with herbicide V” value [6] was “active”.

B4: V367I, I374V: double mutant of Zea mays bx8 (protein)
chain: B3 chain with T248A, V256E, Q265R, V367I, I374V
modifications: Mutated Zea mays Bx8 protein sequence
In the case of B4, the “activity with herbicide V” value [6] is reported as “detectable activity”.

B5: SEQ ID NO: 40: I374V, H376C double mutant of Zea mays bx8 (protein)
chain: B3 chain with T248A, V256E, Q265R, I374V, H376C
modifications: Mutated Zea mays Bx8 protein sequence
In the case of B5, the “activity with herbicide V” value [6] is reported as “detectable activity”, the “activity relative to like-expressed Zea mays bx9 w/t extract” value [6] is reported as “about a third to a half” and the “activity relative to like-expressed Zea mays bx9 w/t extract” value ([6]; listed as SEQ ID No 40) is reported as “up to about half”.

B6: E256V, R265Q: double mutant of Zea mays bx8 (protein)
chain: B3 chain with T248A
modifications: Mutated Zea mays Bx8 protein sequence
With B6 the “activity with herbicide V” value [6] was “detectable activity”.

B7: V367I, H376C: double mutant of Zea mays bx8 (protein)
chain: B3 chain with T248A, V256E, Q265R, V367I, H376C
modifications: Mutated Zea mays Bx8 protein sequence
In the case of B7, the “activity with herbicide V” value [6] is reported as “detectable activity”.

B8: D170E, A72P, A174P: triple mutant of Zea mays bx8 (protein)
chain: B3 chain with A72P, D170E, A174P, T248A, V256E, Q265R
modifications: Mutated Zea mays Bx8 protein sequence
In the case of B8, the “activity with herbicide V” value [6] is reported as “detectable activity”.

B9: A246T, E256V: double mutant of Zea mays bx8, printed A248T, E256V in b223 (protein)
chain: B3 chain with Q265R
modifications: Mutated Zea mays Bx8 protein sequence
notes: double mutant of Zea mays bx8, printed A248T, E256V
For B9, the “activity with herbicide V” value [6] was “detectable activity”.

— patent US20200270588A1, “GLUCOSYL TRANSFERASE POLYPEPTIDES AND METHODS OF USE” (Syngenta Participations AG, priority 2017, published 2020)
